Measured values reported in PMC11343034, “CDCA7 is an evolutionarily conserved hemimethylated DNA sensor in eukaryotes”.
Residue numbers refer to the chain shown, from its start.

T1: hCDCA7 264-371 C339S (Homo sapiens, UniProt Q9BWT1 264-371, C339S)
T1 sequence: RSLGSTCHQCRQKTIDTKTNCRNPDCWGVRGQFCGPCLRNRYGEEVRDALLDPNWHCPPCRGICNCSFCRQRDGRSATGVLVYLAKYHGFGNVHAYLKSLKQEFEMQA

T2: A. thaliana CDCA7 homolog (Arabidopsis thaliana, UniProt Q0WPT6 1-417)
T2 sequence: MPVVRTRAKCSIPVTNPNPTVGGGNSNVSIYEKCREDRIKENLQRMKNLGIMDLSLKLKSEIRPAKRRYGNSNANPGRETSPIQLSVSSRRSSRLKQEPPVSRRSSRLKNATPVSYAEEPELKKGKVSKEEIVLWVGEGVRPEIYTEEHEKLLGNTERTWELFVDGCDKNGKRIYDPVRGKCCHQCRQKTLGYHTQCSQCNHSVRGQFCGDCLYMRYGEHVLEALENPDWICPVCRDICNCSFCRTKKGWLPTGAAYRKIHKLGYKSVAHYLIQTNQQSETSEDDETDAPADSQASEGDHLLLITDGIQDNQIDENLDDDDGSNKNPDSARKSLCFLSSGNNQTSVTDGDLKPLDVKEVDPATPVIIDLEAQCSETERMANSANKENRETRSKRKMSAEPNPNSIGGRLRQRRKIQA

T3: N. vectensis CDCA7 homolog (Nematostella vectensis, UniProt A7SQU1 1-157)
T3 sequence: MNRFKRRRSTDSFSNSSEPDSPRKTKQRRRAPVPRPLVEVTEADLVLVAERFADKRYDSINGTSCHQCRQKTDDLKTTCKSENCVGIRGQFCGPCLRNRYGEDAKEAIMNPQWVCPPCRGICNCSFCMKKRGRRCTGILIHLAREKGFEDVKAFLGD

T4: C. gigas CDCA7 homolog (Crassostrea gigas, UniProt A0A8W8IWK5 1-264)
T4 sequence: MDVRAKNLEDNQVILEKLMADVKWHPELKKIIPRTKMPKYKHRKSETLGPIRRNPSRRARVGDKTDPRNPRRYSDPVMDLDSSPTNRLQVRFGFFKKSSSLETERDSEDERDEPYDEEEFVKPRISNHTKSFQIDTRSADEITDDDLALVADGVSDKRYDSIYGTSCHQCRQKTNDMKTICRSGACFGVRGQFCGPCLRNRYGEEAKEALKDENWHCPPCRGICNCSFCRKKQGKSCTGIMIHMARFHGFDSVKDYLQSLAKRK

T5: CDCA7L 322-454 (Homo sapiens, UniProt Q96GN5 322-454)
T5 sequence: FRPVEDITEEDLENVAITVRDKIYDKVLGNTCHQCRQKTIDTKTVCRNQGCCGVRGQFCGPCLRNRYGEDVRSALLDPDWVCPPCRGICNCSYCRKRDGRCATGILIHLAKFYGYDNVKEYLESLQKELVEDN

B1: -62W free DNA (dsDNA)
DNA 1: ATCAGAATCCCGGTGCCGAGGCCGCTCAATTGGTCGTAGACAGCTCTAGCACCGCTTAAACGCACGTACGCGCTGTCCCCCGCGTTTTAACCGCCAAGGGGATTACTCCCTAGTCTCCAGGCACGTGTCAGATATATACATCGAT
DNA 2: ATCGATGTATATATCTGACACGTGCCTGGAGACTAGGGAGTAATCCCCTTGGCGGTTAAAACGCGGGGGACAGCGCGTACGTGCGTTTAAGCGGTGCTAGAGCTGTCTACGACCAATTGAGCGGCCTCGGCACCGGGATTCTGAT
modifications: 5mC at 11 of strand 1
B2: -64C free DNA (dsDNA)
DNA 1: B1 DNA 1 with A136C, T137G
DNA 2: B1 DNA 2 with A9C, T10G
modifications: 5mC at 9 of strand 2
B3: 54-bp hemi-Me (F) (dsDNA)
DNA 1: GCGGGTGATGGACCCTATACGCGGCCGCCCTGGAGAATCCCGGTGCCGCGGCCG
DNA 2: CGGCCGCGGCACCGGGATTCTCCAGGGCGGCCGCGTATAGGGTCCATCACCCGC
modifications: 5mC at 41,47,49,53 of strand 1

Experiments:
hCDCA7 264-371 C339S = target: T1, hCDCA7 264-371 C339S; assay: EMSA; free DNA preferred over nucleosome; Oligo EMSA: 20 mM Tris-HCl pH 7.5, 150 mM NaCl, 1 mM DTT, 0.05% NP-40, 10% glycerol, 4 C, 0.5 uM DNA; nucleosome EMSA: same with 50 mM NaCl, 0.1 uM nucleosome; conditions: protein: recombinant; tags: GST-SUMO removed; blunt
[1] = target: T2, A. thaliana CDCA7 homolog; assay: pull-down; boiled extract; Oligo EMSA: 20 mM Tris-HCl pH 7.5, 150 mM NaCl, 1 mM DTT, 0.05% NP-40, 10% glycerol, 4 C, 0.5 uM DNA; nucleosome EMSA: same with 50 mM NaCl, 0.1 uM nucleosome; conditions: protein: ivt; tags: 35S-Met; label: 5' biotin on strand 2; blunt
[2] = target: T3, N. vectensis CDCA7 homolog; assay: as above; conditions: protein: ivt; tags: 35S-Met; label: 5' biotin on strand 2; blunt
C. gigas CDCA7 homolog = target: T4, C. gigas CDCA7 homolog; assay: as above; conditions: protein: ivt; tags: 35S-Met; label: 5' biotin on strand 2; blunt
CDCA7L 322-454 = target: T5, CDCA7L 322-454; assay: pull-down; egg extract; Oligo EMSA: 20 mM Tris-HCl pH 7.5, 150 mM NaCl, 1 mM DTT, 0.05% NP-40, 10% glycerol, 4 C, 0.5 uM DNA; nucleosome EMSA: same with 50 mM NaCl, 0.1 uM nucleosome; conditions: protein: ivt; tags: 35S-Met; label: 5' biotin on strand 2; blunt

Binder | binding result (hCDCA7 264-371 C339S) | binding result [1] | binding result [2] | binding result (C. gigas CDCA7 homolog) | binding result (CDCA7L 322-454)
B1 | binds | – | – | – | –
B2 | binds | – | – | – | –
B3 | – | binds | binds | binds | binds
